Legend:
[1] = system: SCD Tg mice; test: Organ weight, histology and heme content in SCD Tg mice after chronic treatment; format: in vivo, mouse
Method: (§1) Chronic PEG-ADA therapy. SCD transgenic mice, at eight weeks of age, were divided to two groups. One group was injected with 2.5 U PEG-ADA weekly for 8 weeks. This dosing protocol was designated SCD with PEG-ADA treatment regimen (SCD+PEG-ADA). Another group was injected with normal saline for 8 weeks; it was designated as SCD without PEG-ADA treatment regimen (SCD). Wild-type mice (C57Bl/6) used as control were injected with saline or PEG-ADA as with the SCD groups.
Chronic treatment with A2BR antagonist, PSB1115. SCD transgenic mice or wild type mice (eight weeks of age) were divided to two groups, one groups was injected with 200 μg of PSB1115 (an A2B receptor antagonist: obtained from Tocris Bioscience, St. Louis, Mo.) in PBS, daily for 8 weeks. One of groups was injected with saline.
Mouse organ isolation and histological analysis. Mice were anesthetized and body weight was determined. Organs were isolated and weighed. Half of each organ was quickly frozen in liquid nitrogen and then stored at −80° C. for heme content measurements as described below. The remaining half of each organ was fixed with 4% paraformaldehyde in PBS overnight at 4° C. Fixed tissues were rinsed in PBS, dehydrated through graded ethanol washes, and embedded in paraffin. 5 μm sections were collected on slides and stained with haematoxylin and eosin (H&E). Semiquantification of histological changes was analyzed by Image-Plus, Pro software.
Heme content measurement in multiple mouse tissues. Different organs were quickly removed and frozen in liquid nitrogen as described above. Heme was extracted from organs by homogenization with 1% Triton x-100 in PBS with 1× proteinase inhibitors (Roche) and the supernatant was collected following centrifugation at 20,000 g for 10 minutes at 4° C. Heme content was quantified following the instructions of QuantiChrom Heme Assay Kit (BioAssay Systems, Hayword, Calif.).

[2] = system: RBCs from SCD patients; test: Hypoxia-induced 2,3-DPG in erythrocytes purified from SCD patients; format: cell-based, human; settings: hypoxic conditions (2% oxygen)
Method: Isolation of total erythrocytes and treatment of human and mouse erythrocytes in vitro. Blood collected with heparin as an anti-coagulant was centrifuged at 240×g for 10 min at room temperature, followed by aspiration of plasma and white interface. Packed red blood cells (RBCs) were washed 3 times with culture media (F-10 Ham's with 1% penicillin/streptomycin, 10% fetal bovine serum (FBS), and re-suspended to 4% hematocrit (HCT). One ml of RBCs was added to each well of a 12-well plate. Normal RBCs purified from humans were treated with different concentrations of 5′-(N-ethyl-carboxamido) adenosine (NECA, an adenosine receptor agonist, Sigma-Aldrich, St. Louis, Mo.) ranging from 1-50 μM for different time points (from 1 to 18 hr) under normoxic conditions. Normal RBCs were treated with 10 μM NECA in the presence or absence of adenosine receptor antagonists, including theophylline, PSB36, SCH442416, MRS1754 and MRS3777 (Tocris Bioscience, St. Louis, Mo.) at 10 μM. In addition, normal RBCs were treated directly with the A2BR agonist (BAY 60-6583, Bayer HealthCare AG, Wuppertal, Germany) or the A2AR agonist (CGS21680) (Tocris). Similarly, the mouse RBCs were treated with or without NECA at 10 μM in the presence or absence of theophylline (10 μM). In addition, RBCs purified from 4 adenosine receptor deficient mice were treated with 10 μM NECA. After 18 hours, cells were collected and 2,3-DPG levels were measured as described below. RBCs were purified from SCD patients and treated with or without 10 μM NECA, 5 units/ml polyethylene glycol-adenosine deaminase (PEG-ADA) or 3 mmol/L glycolic acid (Sigma-Aldrich), 10 μM MRS1754 (A2BR antagonist) under ambient oxygen (normoxia) or different levels of hypoxic conditions (for 3 hours with shaking at 37° C. At the end of experiments, 2,3-DPG levels were measured and the percentage of sickled cells determined as described below.
2,3-DPG analysis. 2,3-DPG concentration in RBCs was detected by a commercially available kit (Roche, Nutley, N.J., and as described in Ericson A, de Verdier C H. A modified method for the determination of 2,3-diphosphoglycerate in erythrocytes. Scandinavian journal of clinical and laboratory investigation. 1972; 29(1):84-90).

[3] = system: SCD Tg mice; test: Hemolytic analysis of plasma of SCD Tg mice after chronic treatment; format: in vivo, mouse; settings: chronic PEG-ADA treatment
Method: as §1
Hemolytic analysis. The hemoglobin, haptoglobin and total bilirubin in mouse plasma were quantified by ELISA kits following instructions provided by the vendor (BioAssay Systems, Hayword, Calif.).

B1: PEG-ADA: polyethylene glycol-modified adenosine deaminase, a drug used to lower adenosine concentrations in ADA-deficient humans (protein, UniProt P56658 2-363, looked up)
Adenosine deaminase: AQTPAFNKPKVELHVHLDGAIKPETILYYGRKRGIALPADTPEELQNIIGMDKPLSLPEFLAKFDYYMPAIAGCREAVKRIAYEFVEMKAKDGVVYVEVRYSPHLLANSKVEPIPWNQAEGDLTPDEVVSLVNQGLQEGERDFGVKVRSILCCMRHQPSWSSEVVELCKKYREQTVVAIDLAGDETIEGSSLFPGHVKAYAEAVKSGVHRTVHAGEVGSANVVKEAVDTLKTERLGHGYHTLEDATLYNRLRQENMHFEVCPWSSYLTGAWKPDTEHPVVRFKNDQVNYSLNTDDPLIFKSTLDTDYQMTKNEMGFTEEEFKRLNINAAKSSFLPEDEKKELLDLLYKAYGMPSPASAEQCL
modifications: PEGylated
congestion, vascular damage and necrosis in multiple tissues (histology) ([1]; 8 weeks treatment, lung, liver, spleen (PSB1115 also kidney)): improved | heme content in lung, liver and spleen ([1]; PEG-ADA enzyme therapy): significantly decreases | microinfarction and cysts in renal cortex and congestion in renal medulla ([1]; PEG-ADA enzyme therapy): significantly improved | ratio of spleen weight to body weight ([1]; chronic treatment, untreated 4.52±0.24, p<0.05, n=8): 2.48±0.36 | hypoxia-mediated induction of 2,3-DPG [2]: reduced | plasma Hb [3]: decreased | plasma haptoglobin [3]: increased | total bilirubin [3]: decreased

— patent US20120134979A1, “METHODS AND COMPOSITIONS FOR THE TREATMENT OF SICKLE CELL DISEASE” (priority 2010, published 2012)
